Test results as given in patent US20120171240A1 (UNIVERSITY OF LOUISVILLE RESEARCH FOUNDATION, published 2012).

B1: CSA-hCD40L (fusion of core streptavidin and the extracellular domain of human CD40L) (ligand)
chain: RSHHHHHHITGTWYNQLGSTFIVTAGADGALTGTYESAVGNAESRYVLTGRYDSAPATDGSGTALGWTVAWKNNYRNAHSATTWSGQYVGGAEARINTQWLLTSGATEANAWKSTLVGHDTFTKVKPSAASSEFLDKIEDERNLHEDFVFMKTIQRCNTGERSLSLLNCEEIKSQFEGFVKDIMLNKEETKKENSFEMQKGDQNPQIAAHVISEASSKTTSVLQWAEKGYYTMSNNLVTLENGKQLTVKRQGLYYIYAQVTFCSNREASSQAPFIASLCLKSPGRFERILLRAANTHSSAKPCGQQSIHLGGVFELQPGASVFVNVTDPSQVSHGTGFTSFGLLKL

Key:
[1] = biological target: 4-1BB receptor on mouse T cells (mouse) (UniProt P20334); assay: cell-based or functional assay
4-1BB receptor on mouse T cells (mouse), sequence (P20334 24-256): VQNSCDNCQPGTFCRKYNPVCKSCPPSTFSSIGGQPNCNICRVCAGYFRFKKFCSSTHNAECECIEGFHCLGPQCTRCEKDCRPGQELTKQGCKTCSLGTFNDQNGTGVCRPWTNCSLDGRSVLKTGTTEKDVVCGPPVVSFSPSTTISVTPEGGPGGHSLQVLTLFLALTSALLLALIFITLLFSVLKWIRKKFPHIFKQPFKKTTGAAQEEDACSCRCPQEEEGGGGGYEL

human CD40 receptor = human CD40 receptor (human, UniProt P25942 21-277); assay: cell-based or functional assay
human CD40 receptor, sequence (P25942 21-277): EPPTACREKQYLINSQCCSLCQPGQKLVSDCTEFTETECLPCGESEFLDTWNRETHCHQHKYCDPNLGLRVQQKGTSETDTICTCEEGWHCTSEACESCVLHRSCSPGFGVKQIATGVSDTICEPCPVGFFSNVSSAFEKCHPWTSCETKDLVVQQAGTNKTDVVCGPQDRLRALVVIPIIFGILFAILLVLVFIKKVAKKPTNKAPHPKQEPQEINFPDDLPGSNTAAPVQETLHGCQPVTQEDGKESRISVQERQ

proliferation of CFSE-labeled CD4+CD25- (SP) T cells, percent dividing [1]	proliferation of SP T cells in co-culture with CD4+CD25+ (DP) Treg cells, percent dividing [1]	iNOS production, Western blot, IFN-γ primed CD40KO-human CD40 macrophages (human CD40 receptor)	IL-6 mRNA, RNAse protection assay, murine CD40KO macrophage line expressing human CD40 (human CD40 receptor)	human IL-10 production (printed so; summed up as IL-1β) by human monocytes, ELISA, 18 h (human CD40 receptor)	Molecule
60%	34%	–	–	–	CSA-4-1BBL fusion protein (ligand)
–	–	6 fold	–	–	commercially available trimeric recombinant human CD40L (rhsCD40L) (from UniProt P29965 116-261) (ligand)
–	–	9 fold	2.8 fold	5 fold	B1
